Biological target: T1, phosphorylated ubiquitin (UniProt P0CG47 1-76, phosphorylated (site not given))
T1 construct: ubiquitin, the mature cut product of its precursor; also called pUb; source: prepared as described [16]
Experiment: HDX-MS; native-state hydrogen exchange with pepsin fragmentation MS; 20 mM HEPES, 150 mM NaCl, 10 uM ZnCl2, 1 mM TCEP, 2.5% glycerol, pH 7.0, 20 °C, urea up to 4 M; ~7 uM Parkin(∆Ubl), ~12 uM pUb
Conditions: both partners purified

binding result: binds
B1: Parkin(∆Ubl) (domain or fragment, human)
chain: SSGSPAGRSIYNSFYVYCKGPCQRVQPGKLRVQCSTCRQATLTLTQGPSCWDDVLIPNRMSGECQSPHCPGTSAEFFFKCGAHPTSDKETSVALHLIATNSRNITCITCTDVRSPVLVFQCNSRHVICLDCFHLYCVTRLNDRQFVHDPQLGYSLPCVAGCPNSLIKELHHFRILGEEQYNRYQQYGAEECVLQMGGVLCPRPGCGAGLLPEPDQRKVTCEGGNGLGCGFAFCRECKEAYHEGECSAVFEASGTTTQAYRVDERAAEQARWEAASKETIKKTTKPCPRCHVPVEKNGGCMHMKCPQPQCRLEWCWNCGCEWNRVCMGDHWFDV
notes: two extra serines that precede the Parkin residues in the construct; E3 ubiquitin ligase Parkin, human, canonical isoform (Swiss-Prot O60260-1), residues 135 through 465; RING0, RING1, IBR, REP and RING2 domains, without the Ubl domain and linker; The introduction defines the core as residues 137-461; the methods give the construct as (SS) plus 135-465; The His-SUMO fusion was cut with TEV …

— article PMC11506642, “Cooperative Substructure and Energetics of Allosteric Regulation of the Catalytic Core of the E3 Ubiquitin Ligase Parkin by Phosphorylated Ubiquitin” (Biomolecules, 2024)
